Experimental data as given in US20210095007A1 (MIT, published 2021).
Substitutions are numbered along the chain they refer to.

T1: Ebola virus glycoprotein on Ebola virus Kikwit 1995 strain (Zaire Ebola virus, Kikwit 1995 strain, UniProt P87666 33-676)
T1 sequence: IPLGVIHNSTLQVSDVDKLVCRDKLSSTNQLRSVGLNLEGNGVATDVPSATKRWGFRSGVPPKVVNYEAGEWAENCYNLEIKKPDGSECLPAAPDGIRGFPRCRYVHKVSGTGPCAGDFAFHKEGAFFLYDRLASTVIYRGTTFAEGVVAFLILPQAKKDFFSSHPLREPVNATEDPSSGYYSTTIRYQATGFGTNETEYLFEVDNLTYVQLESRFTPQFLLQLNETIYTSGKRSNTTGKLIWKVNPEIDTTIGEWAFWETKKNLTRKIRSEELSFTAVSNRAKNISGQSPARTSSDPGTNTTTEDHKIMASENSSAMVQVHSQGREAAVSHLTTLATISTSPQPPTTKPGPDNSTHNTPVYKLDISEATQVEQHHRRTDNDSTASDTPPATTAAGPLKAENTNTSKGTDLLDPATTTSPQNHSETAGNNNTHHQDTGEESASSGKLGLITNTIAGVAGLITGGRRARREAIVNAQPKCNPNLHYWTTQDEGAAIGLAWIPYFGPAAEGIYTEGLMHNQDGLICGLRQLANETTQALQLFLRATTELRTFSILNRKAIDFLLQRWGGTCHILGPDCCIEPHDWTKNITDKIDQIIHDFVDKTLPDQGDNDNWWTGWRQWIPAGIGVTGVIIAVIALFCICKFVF

T2: Ebola virus glycoprotein on Ebola virus Mayinga 1976 strain (Zaire Ebola virus, Mayinga 1976 strain, UniProt Q05320 33-676)
T2 sequence: T1 sequence with A278V, R282G, P345S, P346L, P390S, L398P, G408S, L411F, A467T, T512I

T3: Ebola GPdTM (IBT Bioservices) (Ebola virus, UniProt Q05320 33-650)
T3 sequence: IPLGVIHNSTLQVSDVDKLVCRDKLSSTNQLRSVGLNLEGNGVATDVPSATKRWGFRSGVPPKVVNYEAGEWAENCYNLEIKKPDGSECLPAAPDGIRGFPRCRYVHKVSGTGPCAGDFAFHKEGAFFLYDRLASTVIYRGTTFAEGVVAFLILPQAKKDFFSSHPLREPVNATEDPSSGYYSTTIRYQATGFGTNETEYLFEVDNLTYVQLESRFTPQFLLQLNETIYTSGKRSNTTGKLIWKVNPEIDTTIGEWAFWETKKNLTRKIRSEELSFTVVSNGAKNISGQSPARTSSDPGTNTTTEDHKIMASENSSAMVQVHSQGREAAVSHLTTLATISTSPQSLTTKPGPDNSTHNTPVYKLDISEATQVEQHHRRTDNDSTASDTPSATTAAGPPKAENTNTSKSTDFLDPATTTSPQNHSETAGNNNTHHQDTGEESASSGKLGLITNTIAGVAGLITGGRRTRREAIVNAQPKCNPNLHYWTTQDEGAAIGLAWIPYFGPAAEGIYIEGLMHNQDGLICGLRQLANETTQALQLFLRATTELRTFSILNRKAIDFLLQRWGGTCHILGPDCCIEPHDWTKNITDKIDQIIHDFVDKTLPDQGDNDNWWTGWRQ

B1: 4G7.9 (antibody, V domains shown)
VH: QVQLVQSGAEVKKPGSSVKVSCKASGSSFTGFSMNWVRQAPGQSLEWIGNIDTYYGGTTYNGKFKGRVTLTVDKSTSTAYMELSSLRSEDTAVYYCARSAYYGSTFAYWGQGTLVTVSS
VL: DIQMTQSPSSLSASVGDRVTITCRASENIYSYLAWYQQKPGKAPKLLVYNAKTLIEGVPSRFSGSGSGTDFTFTISSLQPEDIATYYCQHHFGTPFTFGQGTKVEIK
B2: 13C6.1 (antibody, V domains shown)
VH: QLTLKESGPTLVKPTQTLSLTCTFSGFSLSTSGVGVGWFRQPPGKALEWLALIWWDDDKYYSPSLKSRLTITKDTSKNQVVLTMTNMDPVDTATYYCARRDPFGYDNAMGYWGQGTTVTVSS
VL: DIVMTQSPSFLSASVGDRVTITCKASQNVGTAVAWYQQKPGKAPKLLIYSASNRYSGVPSRFSGSGSGTDFTLTISSLQPEDFATYFCQQYSSYPLTFGGGTKLEIK
B3: 2G4.6 (antibody, V domains shown)
VH: EVQLLESGGGLVQPGGSLRLSCVASGFTFSNYWMNWVRQAPGKGLEWLAEIRLKSNNYATHYSASVKGRFTISRDKSKSTLYLQMNTLQAEDSAIYYCTRGNGNYRAMDYWGQGTLVTVSS
VL: DIVMTQSPSSLSASVGDRVTITCRASENIYSSLAWYQQKPGKSPQLLVYSATILADGVPSRFSGSGSGTQYTLTISSLQPEDFATYYCQHFWGTPYTFGGGTKVEIK
B4: 4G7.10 (antibody, V domains shown)
VH: B1 VH
VL: B1 VL with A43S, Y87F
B5: 4G7.11 (antibody, V domains shown)
VH: B1 VH
VL: B1 VL with Q3V, A43S, D70Q, T72S, F73L, Y87F, Q100S
B6: 4G7.2 (antibody, V domains shown)
VH: B1 VH with S44G, I48M, L70I, V72A
VL: B1 VL with A43S, Y87F
B7: 4G7.3 (antibody, V domains shown)
VH: B1 VH with S44G, I48M, L70I, V72A
VL: B1 VL with Q3V, A43S, D70Q, T72S, F73L, Y87F, Q100S
B8: 4G7.12 (antibody, V domains shown)
VH: B1 VH
VL: B1 VL with Q3V, A43S, K52V, D70Q, T72S, F73L, Y87F, Q100S
B9: 4G7.1 (antibody, V domains shown)
VH: B1 VH with S44G, I48M, L70I, V72A
VL: B1 VL
B10: 13C6 wild type (parent mouse monoclonal antibody 13C6) (antibody, V domains shown)
VH: QLTLKESGPGILKPSQTLSLTCSLSGFSLSTSGVGVGWFRQPSGKGLEWLALIWWDDDKYYNPSLKSQLSISKDFSRNQVFLKISNVDIADTATYYCARRDPFGYDNAMGYWGQGTSVTVSS
VL: DIVMTQSQKFMSTSVGDRVSLTCKASQNVGTAVAWYQQKPGQSPKLLIYSASNRYTGVPDRFTGSGSGTDFTLTISNMQSEDLADYFCQQYSSYPLTFGAGTKLELR
B11: 2G4 wild type (parent mouse monoclonal antibody 2G4) (antibody, V domains shown)
VH: EVQLQQSGGGLMQPGGSMKLSCVASGFTFSNYWMNWVRQSPEKGLEWVAEIRLKSNNYATHYAESVKGRFTISRDDSKRSVYLQMNTLRAEDTGIYYCTRGNGNYRAMDYWGQGTSVTVSS
VL: DIVMTQSPASLSVSVGETVSITCRASENIYSSLAWYQQKQGKSPQLLVYSATILADGVPSRFSGSGSGTQYSLKINSLQSEDFGTYYCQHFWGTPYTFGGGTKLEIK
B12: 4G7 wild type (parent mouse monoclonal antibody 4G7) (antibody, V domains shown)
VH: EVQLQQSGPELEMPGASVKISCKASGSSFTGFSMNWVKQSNGKSLEWIGNIDTYYGGTTYNQKFKGKATLTVDKSSSTAYMQLKSLTSEDSAVYYCARSAYYGSTFAYWGQGTLVTVSS
VL: DIVMTQSPASLSASVGETVTITCRASENIYSYLAWYQQKQGKSPQLLVYNAKTLIEGVPSRFSGSGSGTQFSLKINSLQPEDFGSYFCQHHFGTPFTFGSGTELEIK
B13: 2G4.3 (antibody, V domains shown)
VH: B3 VH with A49G, E50F
VL: B3 VL

target: Ebola virus glycoprotein on Ebola virus Makona 2014 strain (Zaire Ebola virus, Makona 2014 strain); assay: cell-based or functional assay

Row | Binder | plaque reduction neutralization titre (Vero E6 cells, 200 pfu) [µg/mL]
1 | B1 | 1
2 | B2 | > 50
3 | B3 | 2

target: T1, Ebola virus glycoprotein on Ebola virus …; assay: cell-based or functional assay

Row | Binder | plaque reduction neutralization titre (Vero E6 cells, 200 pfu) [µg/mL]
4 | B1 | 1
5 | B2 | > 50
6 | B3 | 4

target: T2, Ebola virus glycoprotein on Ebola virus …; assay: cell-based or functional assay

Row | Binder | plaque reduction neutralization titre (Vero E6 cells, 200 pfu) [µg/mL]
7 | B1 | 1
8 | B2 | > 50
9 | B3 | 2

target: T3, Ebola GPdTM (IBT Bioservices); assay: ELISA, GPdTM coated at 1 µg/mL, anti-human IgG Fc-HRP detection

Row | Binder | EC50 [nM]
10 | B4 | 0.12
11 | B5 | 0.145
12 | B6 | 0.0952
13 | B1 | 0.0997
14 | B7 | 0.176
15 | B8 | 0.0888
16 | B9 | 0.182
17 | B2 | 0.136
18 | B10 | 0.0747
19 | B11 | 0.154
20 | B12 | 0.0725
21 | B13 | 0.129
22 | B3 | 0.109
